Key:
MT145K gp120 monomer = test: ELISA; parameters: unit not given beside the values
[1] = target: MT145K SOSIP.664 trimer (MT145 Q171K); test: ELISA; parameters: unit not given beside the values
[2] = target: CRF250 SOSIP trimer (HIV-1 (subtype AG)); test: method not stated

Substance | EC50 (MT145K gp120 monomer) | EC50 [1] | Kd [2] [nM]
CH01 | 10 ? | 0.187 ? | –
CH01 UCA BCR (antibody) | – | – | 100
PG9 | 0.792 ? | – | –
